Measurements as given in PMC12416549 (2024).
Positions count from the first letter of the chain named. Names may count otherwise.

T1: TNFR1 (Homo sapiens, UniProt P19438)
T1 chain: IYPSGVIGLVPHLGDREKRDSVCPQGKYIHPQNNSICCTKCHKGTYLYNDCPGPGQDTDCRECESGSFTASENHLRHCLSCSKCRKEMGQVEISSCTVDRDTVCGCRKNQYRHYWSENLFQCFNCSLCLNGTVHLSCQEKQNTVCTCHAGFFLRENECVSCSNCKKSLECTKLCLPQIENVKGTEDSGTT

B1: E78I (designed binder)
chain: SMEEEVEKAAKEYEKKKKEAIEKHLEKLKAKDKEAAERFLKELEEAAKEYAKDEAKTMSEEEAKRRAKKYKEKVLLSILSEEEQKEIKEAEEKLVRTILKYVEEAAK
B2: K52E (designed binder)
chain: B1 chain with K52E, I78E
B3: E89F (designed binder)
chain: B1 chain with I78E, E89F
B4: E81G (designed binder)
chain: B1 chain with I78E, E81G
B5: L99D (designed binder)
chain: B1 chain with I78E, L99D
B6: K69V (designed binder)
chain: B1 chain with K69V, I78E
B7: K15M (designed binder)
chain: B1 chain with K15M, I78E
B8: A63H (designed binder)
chain: B1 chain with A63H, I78E
B9: Y70N (designed binder)
chain: B1 chain with Y70N, I78E
B10: K64F (designed binder)
chain: B1 chain with K64F, I78E
B11: A51K (designed binder)
chain: B1 chain with A51K, I78E
B12: S59E (designed binder)
chain: B1 chain with S59E, I78E
B13: K107V (designed binder)
chain: B1 chain with I78E, K107V
B14: A46D (designed binder)
chain: B1 chain with A46D, I78E
B15: K18L (designed binder)
chain: B1 chain with K18L, I78E
B16: K33Q (designed binder)
chain: B1 chain with K33Q, I78E
B17: E89Y (designed binder)
chain: B1 chain with I78E, E89Y
B18: K88M (designed binder)
chain: B1 chain with I78E, K88M
B19: K33F (designed binder)
chain: B1 chain with K33F, I78E
B20: K15F (designed binder)
chain: B1 chain with K15F, I78E
B21: E81N (designed binder)
chain: B1 chain with I78E, E81N
B22: E104H (designed binder)
chain: B1 chain with I78E, E104H
B23: L28Q (designed binder)
chain: B1 chain with L28Q, I78E
B24: I87K (designed binder)
chain: B1 chain with I78E, I87K
B25: E4T (designed binder)
chain: B1 chain with E4T, I78E
B26: R96K (designed binder)
chain: B1 chain with I78E, R96K
B27: E72R (designed binder)
chain: B1 chain with E72R, I78E
B28: V95M (designed binder)
chain: B1 chain with I78E, V95M
B29: E37K (designed binder)
chain: B1 chain with E37K, I78E
B30: D53G (designed binder)
chain: B1 chain with D53G, I78E
B31: S80G (designed binder)
chain: B1 chain with I78E, S80G
B32: K88T (designed binder)
chain: B1 chain with I78E, K88T
B33: A35V (designed binder)
chain: B1 chain with A35V, I78E
B34: E3D (designed binder)
chain: B1 chain with E3D, I78E
B35: A55T (designed binder)
chain: B1 chain with A55T, I78E
B36: K69E (designed binder)
chain: B1 chain with K69E, I78E
B37: M58V (designed binder)
chain: B1 chain with M58V, I78E
B38: E60L (designed binder)
chain: B1 chain with E60L, I78E
B39: K56D (designed binder)
chain: B1 chain with K56D, I78E
B40: A9Q (designed binder)
chain: B1 chain with A9Q, I78E
B41: E81T (designed binder)
chain: B1 chain with I78E, E81T
B42: D53F (designed binder)
chain: B1 chain with D53F, I78E
B43: A20R (designed binder)
chain: B1 chain with A20R, I78E
B44: K31S (designed binder)
chain: B1 chain with K31S, I78E
B45: E7H (designed binder)
chain: B1 chain with E7H, I78E
B46: K31A (designed binder)
chain: B1 chain with K31A, I78E
B47: K23F (designed binder)
chain: B1 chain with K23F, I78E
B48: K52H (designed binder)
chain: B1 chain with K52H, I78E
B49: E42K (designed binder)
chain: B1 chain with E42K, I78E
B50: S59F (designed binder)
chain: B1 chain with S59F, I78E
B51: K64D (designed binder)
chain: B1 chain with K64D, I78E
B52: S80D (designed binder)
chain: B1 chain with I78E, S80D
B53: E103T (designed binder)
chain: B1 chain with I78E, E103T
B54: V6I (designed binder)
chain: B1 chain with V6I, I78E
B55: L99W (designed binder)
chain: B1 chain with I78E, L99W
B56: L75H (designed binder)
chain: B1 chain with L75H, I78E
B57: A9M (designed binder)
chain: B1 chain with A9M, I78E
B58: E92H (designed binder)
chain: B1 chain with I78E, E92H
B59: Y50H (designed binder)
chain: B1 chain with Y50H, I78E

Molecular target: T1, TNFR1
Assay: yeast display SC50

apparent Kd (screen) [nM]	Binder
0.49	B1
0.446	B2
1.86	B3
1.16	B4
11.4	B5
0.49	B6
0.539	B7
4.39	B8
8.56	B9
0.49	B10
0.49	B11
0.956	B12
2.05	B13
2.73	B14
1.69	B15
0.869	B16
2.25	B17
0.446	B18
0.49	B19
0.446	B20

apparent Kd (screen) [nM]	Binder
0.49	B21
0.446	B22
0.539	B23
9.41	B24
0.446	B25
0.718	B26
7.07	B27
10.4	B28
0.49	B29
12.5	B30
2.48	B31
0.446	B32
0.653	B33
2.48	B34
10.4	B35
0.593	B36
2.25	B37
0.446	B38
7.78	B39
0.446	B40

apparent Kd (screen) [nM]	Binder
0.718	B41
2.48	B42
0.446	B43
0.956	B44
4.39	B45
0.718	B46
0.79	B47
0.956	B48
0.368	B49
7.07	B50
1.05	B51
1.4	B52
0.718	B53
0.49	B54
11.4	B55
1.69	B56
0.446	B57
3	B58
13.8	B59
